The chains are these.
T1: IFN-αF (human, UniProt P01568 24-189)
T1 construct: also called IFN-α21; alpha F
T1 chain: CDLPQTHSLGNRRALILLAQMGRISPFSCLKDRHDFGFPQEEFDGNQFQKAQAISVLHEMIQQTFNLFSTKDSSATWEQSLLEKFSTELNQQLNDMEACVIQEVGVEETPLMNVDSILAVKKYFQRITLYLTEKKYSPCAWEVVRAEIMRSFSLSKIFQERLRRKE

B1: IFWM371 (antibody, V domains shown)
VH: EVQLVQSGAEVKKPGESLKISCKGSGYSFTSYWIGWVRQMPGKGLEWMGIIDPSDSDTRYSPSFQGQVTISADKSISTAYLQWSSLKASDTAMYYCARHPGLNWAPDFDYWGQGTLVTVSS
VL: not shown
notes: VH IFWH591, VL PH9L4; parental mAb, IgG1/kappa; also called IFWB351
B2: IFWM3323 (antibody, V domains shown)
VH: B1 VH
VL: DIQMTQSPSSLSASVGDRVTITCRASQSITNHLNWYQQKPGKAPKLLIYFASSLQSGVPSRFSGSGSGTDFTLTISSLQPEDFATYYCQQAHNFPLTFGQGTKVEIK
notes: VH IFWH591, VL IFWL1053; converted mAb; also called IFWB3058
B3: IFWM3301 (antibody, V domains shown)
VH: B1 VH
VL: B2 VL with T30D, N31G, H32S, A91S, H92Y, N93D
notes: VH IFWH591, VL IFWL983; converted mAb; also called IFWB3036
B4: IFWM3310 (antibody, V domains shown)
VH: B1 VH
VL: B2 VL with T30G, N31K, H32S, A91S, H92Y, N93D
notes: VH IFWH591, VL IFWL1007; converted mAb; also called IFWB3045
B5: IFWM3305 (antibody, V domains shown)
VH: B1 VH
VL: B2 VL with T30S, N31K, H32F, A91S, H92N, N93T, F94L, L96F
notes: VH IFWH591, VL IFWL998; converted mAb; also called IFWB3040
B6: IFWM3313 (antibody, V domains shown)
VH: B1 VH
VL: B2 VL with T30N, H32F, A91S, H92F, F94L, L96I
notes: VH IFWH591, VL IFWL1013; converted mAb; also called IFWB3048
B7: IFWM3291 (antibody, V domains shown)
VH: B1 VH
VL: B2 VL with T30D, N31E, H32F, N93S
notes: VH IFWH591, VL IFWL999; converted mAb; also called IFWB3026
B8: IFWM3312 (antibody, V domains shown)
VH: B1 VH
VL: B2 VL with T30D, N31G, H32A, A91S, H92F, N93D
notes: VH IFWH591, VL IFWL1010; converted mAb; also called IFWB3047
B9: IFWM3309 (antibody, V domains shown)
VH: B1 VH
VL: B2 VL with T30G, N31G, H32F, A91S, H92Y, N93S, F94L, L96I
notes: VH IFWH591, VL IFWL1006; converted mAb; also called IFWB3044
B10: IFWM3308 (antibody, V domains shown)
VH: B1 VH
VL: B2 VL with T30A, N31E, H32F, A91S, H92I, N93D
notes: VH IFWH591, VL IFWL1004; converted mAb; also called IFWB3043
B11: IFWM3292 (antibody, V domains shown)
VH: B1 VH with R59A
VL: B2 VL with T30D, N31E, H32F, N93S
notes: VH IFWH624, VL IFWL999; converted mAb; also called IFWB3027
B12: IFWM3302 (antibody, V domains shown)
VH: B1 VH
VL: B2 VL with T30N, N31R, H32F, F50A, H92I, N93D, F94L, L96F
notes: VH IFWH591, VL IFWL991; converted mAb; also called IFWB3037
B13: IFWM3304 (antibody, V domains shown)
VH: B1 VH
VL: B2 VL with T30G, N31S, H32A, A91S, H92Y, N93D
notes: VH IFWH591, VL IFWL997; converted mAb; also called IFWB3039
B14: IFWM3303 (antibody, V domains shown)
VH: B1 VH
VL: B2 VL with T30G, N31S, H32F, A91S, H92Y, N93S, F94I, L96I
notes: VH IFWH591, VL IFWL992; converted mAb; also called IFWB3038
B15: IFWM3306 (antibody, V domains shown)
VH: B1 VH
VL: B2 VL with H32F, A91S, H92L, N93D
notes: VH IFWH591, VL IFWL1000; converted mAb; also called IFWB3041
B16: IFWM3356 (antibody, V domains shown)
VH: B1 VH with R59A
VL: B2 VL with T30S, N31K, H32F, A91S, H92Y, N93D, L96I
notes: VH IFWH624, VL IFWL1026; converted mAb; also called IFWB3091
B17: IFWM3307 (antibody, V domains shown)
VH: B1 VH
VL: B2 VL with T30G, N31D, H32F, H92L, N93D
notes: VH IFWH591, VL IFWL1001; converted mAb; also called IFWB3042

Substitutions are numbered along the chain they refer to.

One assay concerns the target T1, IFN-αF. Nature of the assay: ProteOn, one antigen concentration.
Source text: (§1) To increase the assay throughput, only one concentration of the individual antigen was used.
The term Kd denotes the constant that tells how readily two partners part at equilibrium. Turning to B1, the dissociation constant (Kd) was determined as 0.775 nM.
B2: binding was characterised by a dissociation constant (Kd) of 0.048 nM.
Turning to B3, the Kd was 0.029 nM.
The same measure, in the same setting: for B4 the value was 0.04 nM; for B5, 0.113 nM.
On the same count and under the same terms, for B6 the value was 0.084 nM; for B7, 0.051 nM; for B8, 0.02 nM.
In the case of B9, binding was put at a Kd of 0.14 nM.
As to B10, binding was put at a Kd of 0.053 nM.
Consider B11, for which binding was put at a Kd of 0.098 nM.
Turning to B12, the dissociation constant Kd worked out at 0.072 nM.
In turn, B13 registered a Kd of 0.032 nM.
Same read-out and setting: for B14 the value was 0.134 nM; for B15, 0.025 nM.

Another assay has as its target T2, human IFN-ω (human, UniProt P05000 24-195).
T2 construct: also called interferon omega
Nature of the assay: ProteOn, one antigen concentration.
Source text: as §1
In turn, B1 displayed an equilibrium dissociation constant (Kd) of 1.06 nM.
Still for that read-out and setting: for B2 the value was 0.073 nM.
Still for that read-out and setting: for B3 the value was 0.018 nM.
B4 yielded a Kd of 0.065 nM.
B5 came in with a Kd of 0.031 nM.
In the case of B6, binding was characterised by a dissociation constant (Kd) of 0.056 nM.
In turn, B7 yielded an equilibrium dissociation constant (Kd) of 0.028 nM.
Still for that read-out and setting: for B8 the value was 0.013 nM.
B9 had a Kd of 0.055 nM.
B16 returned a Kd of 0.274 nM.
Turning to B10, the equilibrium dissociation constant (Kd) turned out to be 0.038 nM.
On to B11, for which the Kd was 0.018 nM.
Still for that read-out and setting: for B17 the value was 0.046 nM; for B12, 0.052 nM; for B13, 0.032 nM.
Molecule B14 showed an equilibrium dissociation constant (Kd) of 0.013 nM.
For B15, binding was characterised by a dissociation constant (Kd) of 0.02 nM.

The next assay concerns the target T3, IFN-αG (human, UniProt P01569 24-189).
T3 construct: also called IFN-α5; alpha G
The assay is described as follows: ProteOn, one antigen concentration.
Source text: as §1
As to B1, the Kd was found to be 0.263 nM.
The molecule B2 gave a dissociation constant Kd of 0.094 nM.
B3: the dissociation constant Kd worked out at 0.029 nM.
For B4, binding was characterised by a dissociation constant (Kd) of 0.054 nM.
On the same count and under the same terms, for B5 the value was 0.127 nM.
Still for that read-out and setting: for B6 the value was 0.118 nM.
On to B7, for which binding was put at a Kd of 0.067 nM.
In turn, B8 gave a Kd of 0.013 nM.
As for B9, the affinity, expressed as Kd, was 0.12 nM.
In turn, B10 had a Kd of 0.045 nM.
On the same count and under the same terms, for B11 the value was 0.049 nM; for B17, 0.058 nM; for B12, 0.098 nM.
B13: binding was put at a Kd of 0.037 nM.
Same read-out and setting: for B14 the value was 0.082 nM; for B15, 0.029 nM.

In the next assay the target is T4, IFN-α4a (human, UniProt P05014 24-189).
T4 construct: also called IFN-αM1
The assay is described as follows: ProteOn, one antigen concentration.
Source text: as §1
As to B2, the Kd amounted to 0.337 nM.
B3: the dissociation constant (Kd) came to 0.146 nM.
As for B4, the affinity, expressed as Kd, was 0.177 nM.
Consider B5, for which the affinity, expressed as Kd, was 0.223 nM.
As to B6, the equilibrium dissociation constant (Kd) came out at 0.354 nM.
For B7, binding was put at a Kd of 0.317 nM.
On the same count and under the same terms, for B8 the value was 0.144 nM.
The same measure, in the same setting: for B9 the value was 0.383 nM.
The same measure, in the same setting: for B10 the value was 0.246 nM; for B11, 0.613 nM; for B17, 0.426 nM.
B12 came in with an equilibrium dissociation constant (Kd) of 0.268 nM.
The molecule B13 had a dissociation constant (Kd) of 0.12 nM.
As for B14, the Kd turned out to be 0.299 nM.
Same read-out and setting: for B15 the value was 0.147 nM.

The next assay deals with T5, IFN-αC (human, UniProt P01566 24-189).
T5 construct: also called IFN-α10; alpha C
The assay is described as follows: ProteOn, one antigen concentration.
Source text: as §1
Consider B1, for which the affinity, expressed as Kd, was 0.865 nM.
B3 had a dissociation constant Kd of 0.024 nM.
The same measure, in the same setting: for B4 the value was 0.057 nM; for B5, 0.114 nM; for B7, 0.045 nM.
B9 showed a Kd of 0.109 nM.
The same measure, in the same setting: for B10 the value was 0.052 nM; for B11, 0.123 nM; for B17, 0.062 nM.
In turn, B12 returned a Kd of 0.083 nM.
The same measure, in the same setting: for B13 the value was 0.026 nM; for B14, 0.079 nM.
B15 displayed a Kd of 0.027 nM.

The next assay deals with T6, IFN-αJ1 (human, UniProt P01567 24-189).
T6 construct: also called IFN-α7; alpha J1
The assay is described as follows: ProteOn, one antigen concentration.
Source text: as §1
B1 came in with a dissociation constant (Kd) of 4.23 nM.
On to B2, for which the Kd is 0.144 nM.
Still for that read-out and setting: for B3 the value was 0.074 nM.
On to B4, for which the dissociation constant (Kd) stood at 0.101 nM.
With B5, the dissociation constant (Kd) turned out to be 0.154 nM.
On the same count and under the same terms, for B6 the value was 0.221 nM; for B7, 0.122 nM.
The same measure, in the same setting: for B8 the value was 0.068 nM; for B9, 0.275 nM.
Molecule B10 registered an equilibrium dissociation constant (Kd) of 0.203 nM.
Same read-out and setting: for B11 the value was 0.295 nM; for B17, 0.305 nM.
The same measure, in the same setting: for B12 the value was 0.231 nM; for B13, 0.053 nM.
Still for that read-out and setting: for B14 the value was 0.157 nM; for B15, 0.086 nM.

A further assay concerns the target T7, IFN-αWA (human, UniProt P05015 24-189).
T7 construct: also called IFN-α16; alpha WA
The assay is described as follows: ProteOn, one antigen concentration.
Source text: as §1
Molecule B1 returned a Kd of 1.39 nM.
B2: the Kd amounted to 0.121 nM.
In the case of B3, the Kd was 0.079 nM.
B4 showed a Kd of 0.091 nM.
Consider B5, for which binding was put at a Kd of 0.201 nM.
Regarding B6, the Kd worked out at 0.155 nM.
Same read-out and setting: for B7 the value was 0.125 nM; for B8, 0.038 nM.
Same read-out and setting: for B9 the value was 0.139 nM; for B10, 0.099 nM; for B11, 0.072 nM.
On the same count and under the same terms, for B17 the value was 0.162 nM.
With B12, the equilibrium dissociation constant (Kd) was determined as 0.168 nM.
The same measure, in the same setting: for B13 the value was 0.092 nM.
The same measure, in the same setting: for B14 the value was 0.168 nM; for B15, 0.07 nM.
